Assay [1] relates to Fr.II cells derived from the bone marrow of MCA26 tumor-bearing mice. Description: In vitro differentiation of bone marrow Fr.II myeloid progenitor cells, flow cytometry. Format: cell-based, mouse. The note with it: 10 days GM-CSF, then additional 24 hours. How it is done:
FIG. 19. Immunostaining of DCs generated from different culture conditions. BM Fr.II cells derived from naive and MCA-26 tumor bearing mice were cultured with mGM-CSF for 10 days. Non-adherent cells were harvested and cultured in the presence of mGM-CSF or mGM-CSF and anti-CD40 mAb ([…], FGK45 clone) for additional 24 hours. Non-adherent cells were stained and analyzed for the expression of various surface molecules by flow cytometry. Mean±SD is obtained from three independent experiments.
The ability of Fr.II cells derived from the bone marrow of MCA26 tumor-bearing mice to differentiate into dendritic cells when cultured under various conditions was assessed. Fr.II cells from derived the bone marrow of tumor-free or MCA26 tumor-bearing mice were cultured for 10 days with GM-CSF. Then non-adherent cells were harvested and cultured for additional 24 hours in the presence of GM-CSF or GM-CSF and anti-CD40 monoclonal antibody. The non-adherent cells were stained and analyzed for the expression of various cell surface molecules by flow cytometry. The expression of CD40, CD80, and MHC class II was relatively low in the tumor-bearing mice. However, after culturing the Fr. II cells with GM-CSF or GM-CSF and anti-CD40 monoclonal antibody, the expression of CD40, CD 80, CD11c and MHC class II by the Fr. […]

In assay [2] the test system is TILs. Description: In vitro GM-CSF stimulation of TILs from large tumor-bearing mice, surface marker staining. Format: cell-based, mouse. To be noted: GM-CSF 100 ng/ml for 5 days. How it is done:
The ability of in vitro stimulation with GM-CSF to promote the differentiation of tumor infiltrating lymphocytes (TILs) into dendritic cells or macrophages by was assessed. The TILs were isolated from large tumor-bearing mice, separated on a lymphocyte separation gradient, cultured with or without GM-CSF (100 ng/ml) for 5 days, and then stained with various cell surface markers. A reproducibly high percentage of Gr-1^+ cells was resent in the TIL population (65.5%), while the percentage of dendritic cells in the TIL population was very low (0.31%); some macrophages (14.9%) were also present in the TIL population.

B1: GM-CSF: murine granulocyte macrophage colony-stimulating factor added to cultures (protein, UniProt P01587 18-141, looked up)
Granulocyte-macrophage …: APTRSPITVTRPWKHVEAIKEALNLLDDMPVTLNEEVEVVSNEFSFKKLTCVQTRLKIFEQGLRGNFTKLKGALNMTASYYQTYCPPTPETDCETQVTTYADFIDSLKTFLTDIPFECKKPGQK
For B1, the “expression of CD40, CD 80, CD11c and MHC class II by the Fr. II cells” value in assay [1] is listed as “significantly increased”. In addition, in assay [2], the “Gr-1^+ cells in the TIL population” value amounted to 42.7%, the “dendritic cells in the TIL population” value is on record as 13.9% and the “macrophages in the TIL population” value is 24.3%.

Source of the values: US20030035790A1, “Combination therapy for the prevention or treatment of cancer, inflammatory disorders or infectious diseases in a subject” (priority 1999, published 2003).
